Data as given in article PMC10400924 (The Journal of Biological Chemistry, 2023).
Like-named read-outs stand apart in the source and are kept apart here.

Assays:
[1] = target: interferon γ receptor 1 protein (immobilised for SPR) (UniProt P15260); assay: SPR
[2] = target: interferon γ receptor 1 protein (immobilised for SPR) (UniProt P15260); assay: SPR; remark: listed apart in the source
IFNγR1 [3] = target: T1, IFNγR1 (Homo sapiens, UniProt P15260); settings: 10 μM CF, 3 h, intact NK92 cells
Target sequence in this assay (P15260 18-489): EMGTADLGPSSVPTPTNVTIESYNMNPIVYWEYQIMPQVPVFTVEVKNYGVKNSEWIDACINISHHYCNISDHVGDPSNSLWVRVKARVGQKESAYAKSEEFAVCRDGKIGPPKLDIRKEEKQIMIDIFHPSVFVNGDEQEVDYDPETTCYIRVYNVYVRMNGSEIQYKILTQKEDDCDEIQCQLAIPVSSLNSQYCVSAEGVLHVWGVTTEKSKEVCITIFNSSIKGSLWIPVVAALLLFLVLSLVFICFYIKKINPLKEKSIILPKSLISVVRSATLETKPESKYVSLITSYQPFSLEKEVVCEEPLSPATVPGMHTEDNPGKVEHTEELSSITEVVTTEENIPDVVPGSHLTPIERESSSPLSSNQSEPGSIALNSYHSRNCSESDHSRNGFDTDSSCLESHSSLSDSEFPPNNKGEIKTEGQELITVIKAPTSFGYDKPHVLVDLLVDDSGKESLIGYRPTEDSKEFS

IFNγR1 [4] = target: T1, IFNγR1; assay: biochemical
Target sequence in this assay (P15260 18-489 limits assumed): as the sequence (P15260 18-489) above

interferon γ receptor 1 protein (immobilised for SPR), sequence (P15260 18-489): as above
interferon γ, sequence (P01579 24-161): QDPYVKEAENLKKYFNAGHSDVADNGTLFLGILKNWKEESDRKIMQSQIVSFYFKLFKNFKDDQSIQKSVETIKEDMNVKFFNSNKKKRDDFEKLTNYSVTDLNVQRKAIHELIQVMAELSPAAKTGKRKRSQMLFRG

Kd [1]	Kd [2]	Kd (IFNγR1 [4])	Molecule	thermal stability (CETSA) (IFNγR1 [3])
2.8 nM	4.5 nM	–	interferon γ (from UniProt P01579 24-161) (ligand)	–
–	–	500 nM	COc1cc(/C=C/C(=O)O[C@H]2CC[C@]34C[C@]35CC[C@]3(C)[C@@H]([C@H](C)CCC=C(C)C)CC[C@@]3(C)[C@@H]5CC[C@H]4C2(C)C)ccc1O [CF, Cycloartenyl ferulate]	When treated with CF, the thermal stability of IFNγR1 was significantly increased
